Experimental data reported in doi:10.1101/2024.04.20.590211.
Values joined by “and” are separate entries in the source; they are usually repeats but may differ in a detail not shown here. Identical values can stand only once.

Tests used:
[1] = target: FluPolA/H7N9-WT, wild-type influenza A/Zhejiang/DTID-ZJU01/2013(H7N9) polymerase heterotrimer (influenza A virus A/Zhejiang/DTID-ZJU01/2013(H7N9)) (UniProt M9TI86); assay: SEC
[2] = target: FluPolB, influenza B/Memphis/2003 polymerase heterotrimer (wild type) (influenza B virus B/Memphis/2003) (UniProt Q5V8Z9); assay: mass photometry

Row | Substance | stoichiometry N [1] | fraction of dimers [2] | stoichiometry N [2]
1 | FluPolA/H7N9-WT, wild-type influenza A/Zhejiang/DTID-ZJU01/2013(H7N9) polymerase heterotrimer (from UniProt M9TI86;M9TLW3;X5F427) (complex) | 2 | – | –
2 | FluPolB, influenza B/Memphis/2003 polymerase heterotrimer (wild type) (from UniProt Q5V8Z9;Q5V8Y6;Q5V8X3) (complex) | – | 7% and 15% | 2
